Results reported in patent US20060003399A1, “High throughput actin polymerization assay” (Cytokinetics, Inc., priority 2004, published 2006).
“Also recorded” adds a separate entry of the source. Where two headings read alike, the source gives them in different places.

B1: WASP VCA Domain: VCA domain of WASP (SEQ ID NO:6) (protein, listed as Homo sapiens)
chain: GGRGALLDQIRQGIQLNKTPGAPESSALQPPPQSSEGLVGALMHVMQKRSRAIHSSDEGEDQAGDEDEDDEWDD
modifications: (1)..(74) WASP VCA Domain
B2: 98 N-WASP: amino acids 98-501 of SEQ ID NO:4 (protein, listed as Homo sapiens)
chain: FVYNSPRGYFHTFAGDTCQVALNFANEEEAKKFRKAVTDLLGRRQRKSEKRRDPPNGPNLPMATVDIKNPEITTNRFYGPQVNNISHTKEKKKGKAKKKRLTKADIGTPSNFQHIGHVGWDPNTGFDLNNLDPELKNLFDMCGISEAQLKDRETSKVIYDFIEKTGGVEAVKNELRRQAPPPPPPSRGGPPPPPPPPHNSGPPPPPARGRGAPPPPPSRAPTAAPPPPPPSRPSVAVPPPPPNRMYPPPPPALPSSAPSGPPPPPPSVLGVGPVAPPPPPPPPPPPGPPPPPGLPSDGDHQVPTTAGNKAALLDQIREGAQLKKVEQNSRPVSCSGRDALLDQIRQGIQLKSVADGQESTPPTPAPTSGIVGALMEVMQKRSKAIHSSDEDEDEDDEEDFEDDD
modifications: (1)..(505) FL-N-WASP
B3: GST tagged C. albicans FH2 domain: C. albicans FOR1 A1127 to K1598 (FH2 domain only), N-terminally tagged with GST-TEV (protein)
chain: AFDKIPRPKKKLKQLHWEKIDHSQVGNSFWNDPNTHTLVDDLMSKGIFDEIELIFAAKEAKKLATKKKEDLDKVTFLARDISQQFSINLHAFNSFSDEEFVLKVLRCDKDVLTNPAVLDFFGKEDIVEITNTLARNFEPYSTDYKTEEITKPEKDPNELQRPDRIYLELMYNLQHYWKSRTRALNVVVNYDKDVYEYVKKLRLIDEAVDSIKNSKHLKGVFEIILAVGNYMNDSAKQAHGFKLSSLQRLSFMKDEKNSMTFLHYVEKVIRTQYPEFLEFINELSCCNEITKFSIENINNDCKEYARAIKNVQSSIDIGNLSDVSKFHPSDRVLKAVLPALPRAKRKAELLLDQANYTMKEFDDLMKYFGEDPTDQFVKNSFISKFTDFMKDFKRVQAENIKREEELRVYEQRKKLLEKPKSSNNGDSNASDQDGESNEGDGGVMDSLLQRLKAAAPTKGESASARKKALMRK
modifications: left off: a dimerising Fc or GST
notes: C. albicans FOR1 A1127 to K1598 (FH2 domain only), N-terminally tagged with GST-TEV
B4: 105WASP: amino acids 105-501 of SEQ ID NO:2; WASP lacking the WH1 domain (protein, listed as Homo sapiens)
chain: LVYSTPTPFFHTFAGDDCQAGLNFADEDEAQAFRALVQEKIQKRNQRQSGDRRQLPPPPTPANEERRGGLPPLPLHPGGDQGGPPVGPLSLGLATVDIQNPDITSSRYRGLPAPGPSPADKKRSGKKKISKADIGAPSGFKHVSHVGWDPQNGFDVNNLDPDLRSLFSRAGISEAQLTDAETSKLIYDFIEDQGGLEAVRQEMRRQEPLPPPPPPSRGGNQLPRPPIVGGNKGRSGPLPPVPLGIAPPPPTPRGPPPPGRGGPPPPPPPATGRSGPLPPPPPGAGGPPMPPPPPPPPPPPSSGNGPAPPPLPPALVPAGGLAPGGGRGALLDQIRQGIQLNKTPGAPESSALQPPPQSSEGLVGALMHVMQKRSRAIHSSDEGEDQAGDEDEDDEWD
modifications: (1)..(502) FL-WASP
B5: His6 tagged C. albicans FH1-FH2 domain: C. albicans FOR1 M972 to K1598 (FH1 and FH2 domains), C-terminally tagged with His6 (protein)
chain: MDPKFLQELSLKVGKAEPIQDANNKNQFGGPLSSSPEDVSQKHKTSGDSSDKDKVLSSPISSNDIKSPETGNSTTSSAAPPPPPPPPPPPPPPLPPILGGNNSSAAPPPPPPPPPPPAFLNGSGSVIPPAPPLPPPSSGRSSRSVPSTVTKSSGSAFDKIPRPKKKLKQLHWEKIDHSQVGNSFWNDPNTHTLVDDLMSKGIFDEIELIFAAKEAKKLATKKKEDLDKVTFLARDISQQFSINLHAFNSFSDEEFVLKVLRCDKDVLTNPAVLDFFGKEDIVEITNTLARNFEPYSTDYKTEEITKPEKDPNELQRPDRIYLELMYNLQHYWKSRTRALNVVVNYDKDVYEYVKKLRLIDEAVDSIKNSKHLKGVFEIILAVGNYMNDSAKQAHGFKLSSLQRLSFMKDEKNSMTFLHYVEKVIRTQYPEFLEFINELSCCNEITKFSIENINNDCKEYARAIKNVQSSIDIGNLSDVSKFHPSDRVLKAVLPALPRAKRKAELLLDQANYTMKEFDDLMKYFGEDPTDQFVKNSFISKFTDFMKDFKRVQAENIKREEELRVYEQRKKLLEKPKSSNNGDSNASDQDGESNEGDGGVMDSLLQRLKAAAPTKGESASARKKALMRK
modifications: left off: small tags and cut ends
B6: GST tagged C. albicans FH1-FH2 domain: C. albicans FOR1 M972 to K1598 (FH1 and FH2 domains), N-terminally tagged with GST-TEV (protein)
chain: MDPKFLQELSLKVGKAEPIQDANNKNQFGGPLSSSPEDVSQKHKTSGDSSDKDKVLSSPISSNDIKSPETGNSTTSSAAPPPPPPPPPPPPPPLPPILGGNNSSAAPPPPPPPPPPPAFLNGSGSVIPPAPPLPPPSSGRSSRSVPSTVTKSSGSAFDKIPRPKKKLKQLHWEKIDHSQVGNSFWNDPNTHTLVDDLMSKGIFDEIELIFAAKEAKKLATKKKEDLDKVTFLARDISQQFSINLHAFNSFSDEEFVLKVLRCDKDVLTNPAVLDFFGKEDIVEITNTLARNFEPYSTDYKTEEITKPEKDPNELQRPDRIYLELMYNLQHYWKSRTRALNVVVNYDKDVYEYVKKLRLIDEAVDSIKNSKHLKGVFEIILAVGNYMNDSAKQAHGFKLSSLQRLSFMKDEKNSMTFLHYVEKVIRTQYPEFLEFINELSCCNEITKFSIENINNDCKEYARAIKNVQSSIDIGNLSDVSKFHPSDRVLKAVLPALPRAKRKAELLLDQANYTMKEFDDLMKYFGEDPTDQFVKNSFISKFTDFMKDFKRVQAENIKREEELRVYEQRKKLLEKPKSSNNGDSNASDQDGESNEGDGGVMDSLLQRLKAAAPTKGESASARKKALMRK
modifications: left off: a dimerising Fc or GST
notes: C. albicans FOR1 M972 to K1598 (FH1 and FH2 domains), N-terminally tagged with GST-TEV

Experiments:
Arp2/3 = assay: Activities of WASP/N-WASP proteins (Table 4); type: biochemical
Excerpt: The term “variant” or “analogue” generally refers to proteins that are functional equivalents to a native sequence that have similar amino acid sequences and retain, to some extent, one of the activities of the corresponding native protein. Variants/analogues include fragments that retain one or more activities of the corresponding native protein. Examples of WASP and N-WASP activity include, but are not limited to, capacity to: 1) bind Arp2/3 and actin; 2) activate the actin nucleation activity of Arp2/3 (descriptions of assays to detect nucleation activity are provided below); 3) bind an upstream regulator; 4) be regulated by one or more upstream regulators, thereby rendering the WASP or N-WASP protein able to activate the nucleation activity of Arp2/3; and 5) bind downstream regulators initiating signal transduction cascades. Some of the WASP and N-WASP proteins that are provided are able to recapitulate the full activity of WASP or N-WASP, which means that these proteins have all five of the activities just listed. […]
A third class of NPF proteins that can be utilized in some assays include WASP, N-WASP and SCAR proteins that include the WH1 domain but in which the PolyPro region is (e.g., deleted). A fourth class of NPF proteins that can be utilized in some assays are WASP, N-WASP and SCAR deletion mutants in which the PolyPro region is maintained but an N-terminal region (e.g., WH1 domain) is at least partially removed. Some proteins in this class are ones that include the B, CRIB/GBD (WASP and N-WASP), PolyPro and VCA domains, but in which some or all of the WH1 has been removed. One specific example is 98N-WASP, which includes amino acids 98-501 of SEQ ID NO:4. Another specific example is the 105WASP protein, which includes amino acids 105-501 of SEQ ID NO:2 (see FIG. 4B).
As indicated in this table, specific examples of fusion proteins that can be utilized include those that include a segment that encodes full-length WASP or N-WASP, including: Myc-WASP-TAP (SEQ ID NO:14); and Myc-N-WASP-TAP (SEQ ID NO: 16). Examples of fusion proteins that include a WASP or N-WASP deletion mutant domain include: GST-105WASP (SEQ ID NO:18); Myc-105WASP-TAP (SEQ ID NO:20); GST-tev-98N-WASP (SEQ ID NO:22); and Myc-98N-WASP-TAP (SEQ ID NO:24). The TAP tag in these particular fusion proteins has the general structure CBP-tev-ProtA (SEQ ID NO:36). Fusion proteins such as those listed in Table 4 can in some instances be utilized directly, or after one or both of the C- and N-terminal tags are removed. For example, the fusion proteins listed in Table 4 as having a TAP tag can be used once the TAP tag has been cleaved off and/or after the C-terminal tag has been removed.

[1] = Storage stability of purified formin proteins at -80 C; type: physicochemical; conditions: storage at −80° C.
Experimental: The formins were purified on either Ni-NTA column (His6 tagged proteins) or Gluthatione-Sepharose (GST tagged proteins). Resins were equilibrated with lysis buffer. Clear crude extracts were loaded onto column, columns were washed with lysis buffer followed by washing buffer (50 mM Tris pH 8.0, 50 mM KCl, 1 mM DTT, 1 mM MgCl, 3% glycerol), and proteins were eluted with either 300 mM imidazole (His6-tagged proteins) or 10 mM glutathione (GS-tagged proteins). Eluted proteins were analyzed by SDS PAGE (4-20%) (Invitrogen, San Diego Calif.), fractions were pooled and protein concentrations were measured by Coomassie Plus (Bradford)(Bio-Rad, Hercules, Calif.). Purified proteins were “drop-frozen” in liquid nitrogen and stored at −80° C.

actin = biological target: T1, actin (Gallus gallus, UniProt P68139); assay: Formin nucleated actin/pyrene-actin polymerization assay; type: biochemical, chicken
T1 construct: from tissue
Experimental: G-Actin: Typically chicken actin was used. G-actin can be purchased from Cytoskeleton, Inc. It can also be purified according to Pardee and Spudich (1982) Methods of Cell Biol. 24:271-89, and subsequently gel filtered as discussed by MacLean-Fletcher and Pollard (1980) Biochem Biophys. Res. Commun. 96:18-27.
Acrylodan-Actin and Pyrene-Actin: Typically chicken actin was utilized. Pyrene labeled actin was prepared according to methods described in Kouyama and Mihashi (1981) Eur. J. Biochem. 114:33-38 or as described by Cooper et al. (1983) J. Muscle Res. Cell Motility 4:253-62. Alternatively, it can be purchased from Cytoskeleton, Inc. Acrylodan-labeled actin was prepared by modification of the pyrene-labeling protocol described in Cooper et al. (1983) J. Muscle Res. Cell Motility 4:253-62.
G-actin and pyrene-actin were prepared as described in Example 7.
Activity of purified formins from the constructs described above in Example 12 was assessed in an actin/pyrene-actin polymerization assay. Polymerization was carried out in G-buffer and was initiated by addition of 10× polymerization mix.
Gel filtered actin and pyrene-actin were diluted in G-buffer to the indicated final concentrations. Either purified C. albicans formin domains or formin domain-enriched fractions were added together with polymerization mix to start actin polymerization. Formin nucleated actin polymerization was monitored on a Gemini plate reader (excitation at 365 nm and emission at 407 nm). Protein components in the actin polymerization assay are provided below.

Molecule | Activate Arp2/3? (Arp2/3) | Regulated By Which Upstream Regulators? (Arp2/3) | time stable at −80° C. [1] | further results
B1 | Yes | None | – | –
B2 | Yes | Cdc42, PIP2, Nck and Rac1 | – | Activate Arp2/3? (Arp2/3; listed as 98N-WASP): activate actin nucleation by Arp2/3; Regulated By Which Upstream Regulators? (Arp2/3; listed as 98N-WASP): regulated by Cdc42, PIP2, Nck1, and Rc1
B3 | – | – | several | –
B4 | activate actin nucleation by Arp2/3 and Yes | regulated by Cdc42, PIP2, Nck1, and Rc1; also recorded: Cdc42, PIP2, Nck and Rac1 | – | –
B5 | – | – | several | formin concentration used to observe saturation (actin): 300 to 500 nM; actin nucleation activity of the formin (in words) (actin; actin […], pyrene actin 0.5 μM): active, i.e., nucleates actin polymerization
B6 | – | – | more than 6 months | biochemical properties compared with the other formin constructs (in words) (actin): best biochemical properties in terms of solubility, stability and activity; lag phase (actin; 100 nM formin): less than 100 s; time to reach saturation phase (actin; 100 nM formin): 400 s; activity relative to the formin purified in the single step purification (actin; after further purification on SP Sepharose): approximately 3 fold
